Assay results taken from patent US7384761 (RIGEL PHARMACEUTICALS, dated 2008).

T1: Rad9
T1 chain: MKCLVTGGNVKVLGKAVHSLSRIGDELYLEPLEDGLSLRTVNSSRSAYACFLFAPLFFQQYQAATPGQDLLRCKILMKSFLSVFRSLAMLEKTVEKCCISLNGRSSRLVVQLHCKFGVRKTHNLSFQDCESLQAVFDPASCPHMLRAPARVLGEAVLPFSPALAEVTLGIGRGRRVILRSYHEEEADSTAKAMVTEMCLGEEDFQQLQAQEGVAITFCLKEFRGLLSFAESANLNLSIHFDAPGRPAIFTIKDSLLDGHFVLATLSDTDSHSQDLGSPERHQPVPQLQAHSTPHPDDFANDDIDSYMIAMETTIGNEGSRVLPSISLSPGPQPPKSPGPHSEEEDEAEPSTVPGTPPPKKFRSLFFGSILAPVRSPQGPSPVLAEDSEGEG

T2: protein phosphatase 5 (PP5) (Homo sapiens (Human), UniProt P53041 1-499, limits assumed)
T2 construct: Wildtype PP5; also called protein phosphatase type 5; cell cycle protein
T2 sequence: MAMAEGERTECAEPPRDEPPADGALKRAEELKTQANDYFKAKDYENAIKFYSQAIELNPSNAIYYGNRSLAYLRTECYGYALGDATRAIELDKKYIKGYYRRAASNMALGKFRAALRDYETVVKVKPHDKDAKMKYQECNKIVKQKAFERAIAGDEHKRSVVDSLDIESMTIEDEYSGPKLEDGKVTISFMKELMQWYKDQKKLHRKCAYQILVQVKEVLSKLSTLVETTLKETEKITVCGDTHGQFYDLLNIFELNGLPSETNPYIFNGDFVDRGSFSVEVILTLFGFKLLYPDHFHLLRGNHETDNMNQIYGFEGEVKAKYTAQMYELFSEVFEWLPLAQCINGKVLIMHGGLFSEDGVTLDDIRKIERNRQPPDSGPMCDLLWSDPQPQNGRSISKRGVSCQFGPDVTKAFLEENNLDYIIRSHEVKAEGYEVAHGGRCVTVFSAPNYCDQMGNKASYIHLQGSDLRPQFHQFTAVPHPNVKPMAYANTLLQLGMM

B1: protein phosphatase 5 (PP5) (protein)
chain: T2 sequence
B2: Rad9 (other)
chain: T1 chain
notes: also called human Rad9

Experiments:
[1] = target: T1, Rad9
[2] = target: T2, protein phosphatase 5 (PP5); assay: coimmunoprecipitation, gel

Binder | dephosphorylation of Rad9 [1] | dephosphorylation of Rad9 in vitro [1] | binding result [2]
B1 | cotransfection of PP5 with Rad9 in HeLa cells leads to dephosphorylation of Rad9 which is dependent on phophatase activity of PP5 | PP5 dephosphorylates Rad9 directly in vitro | –
B2 | – | – | binds
